For assay [1], the target named is T1, CD19 on NALM6 cells, Raji cells and primary B cells (human, UniProt P15391 20-556).
T1 construct: whole, on cells; Endogenous CD19 on human cell lines / donor B cells; also called NALM6 cells expressing CD19; Raji cells expressing CD19
T1 sequence (looked up): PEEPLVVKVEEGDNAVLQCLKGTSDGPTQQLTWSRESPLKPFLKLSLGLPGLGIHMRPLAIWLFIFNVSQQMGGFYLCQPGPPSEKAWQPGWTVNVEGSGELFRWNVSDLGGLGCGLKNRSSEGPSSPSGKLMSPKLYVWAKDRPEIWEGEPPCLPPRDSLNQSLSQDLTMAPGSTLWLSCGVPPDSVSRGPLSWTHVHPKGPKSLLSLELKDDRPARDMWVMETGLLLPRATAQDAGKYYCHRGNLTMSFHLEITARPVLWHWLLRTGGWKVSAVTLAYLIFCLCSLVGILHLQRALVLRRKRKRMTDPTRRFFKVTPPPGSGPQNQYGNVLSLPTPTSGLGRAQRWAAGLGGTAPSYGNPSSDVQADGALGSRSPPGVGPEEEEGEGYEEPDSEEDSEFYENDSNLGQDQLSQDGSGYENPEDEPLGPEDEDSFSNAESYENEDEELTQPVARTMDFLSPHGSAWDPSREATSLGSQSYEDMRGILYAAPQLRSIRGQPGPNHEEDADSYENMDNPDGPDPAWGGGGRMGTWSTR
The experiment in a line: FACS on NALM6 cells expressing CD19 (FIG. 45A).

For assay [2], the target named is T2, CD3 on T cells / Jurkat cells (human, UniProt P07766 23-207; P04234 22-171; P09693 23-182).
T2 construct: whole, on cells; Native CD3 complex on CD3+ T cells isolated from normal donors or on Jurkat cells; also called human CD3; CD3+ T cells
Briefly: FACS on Jurkat cells expressing CD3.

The target in a further assay is T3, CD3ε monomer (UniProt P07766 23-126).
T3 construct: also called nature CD3ε; denatured CD3ε monomer
Briefly: ELISA, soluble protein coated at 0.2 or 2 ug/mL. (In general: ELISA stands for enzyme-linked immunosorbent assay.)

For assay [3], the target named is T1, CD19 on NALM6 cells, Raji cells and …. Briefly: FACS on primary B cells from healthy donors' PBMC (FIG. 45D). As to the method:
(§1) To evaluate the binding affinity of the generated bispecific antibodies to NALM6 cells, Raji cells, Primary B cells, DoHH2 cells, SU-DHL-1 cells and Jurkat cells, the NALM6 cells expressing CD19, Raji cells expressing CD19, Primary B cells, DoHH2 cells expressing CD20, SU-DHL-1 cells without expressing CD19 or CD20 and Jurkat cells expressing CD3 were stained by the test antibodies and the binding affinity was determined by FACS analysis. Primary B cells were isolated from healthy donors' PBMC by human B cell enrichment Kit (Stemcell #19054). The protocol of FACS analysis is described as follows: [0933] (a) The cells from each cell line above were harvested and centrifuged at 300 g for 5 min, and the supernatant were discarded. […] (b) The cells were washed 2 times with FACS buffer. [0935] (c) Step (a) was repeated. [0936] […] [0937] (e) Step (b) was repeated and the cells were resuspended with 100 μl/well diluted secondary antibody, and incubated at 4° C. for 45 minutes in the dark. [0938] (f) Step (b) was repeated and the cells were resuspended the cells with 150 μl/well FACS buffer and kept in dark for FACS analysis.

Assay [4] shares this target. Briefly: FACS on Raji cells expressing CD19 (FIG. 45C). As to the method: as §1
The target is the same in assay [5]. The experiment in a line: FACS on NALM6 cells expressing CD19, another experiment (FIG. 45B). As to the method:
as §1

Where a chain is given by its changes, count along the chain named. In names and notes the source's numbering stands.

T3 sequence (P07766 23-126): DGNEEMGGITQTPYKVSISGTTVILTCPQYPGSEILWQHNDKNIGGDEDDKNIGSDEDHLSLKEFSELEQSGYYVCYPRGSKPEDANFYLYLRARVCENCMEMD
T2 sequence (P07766 23-207, chain 1 of 3): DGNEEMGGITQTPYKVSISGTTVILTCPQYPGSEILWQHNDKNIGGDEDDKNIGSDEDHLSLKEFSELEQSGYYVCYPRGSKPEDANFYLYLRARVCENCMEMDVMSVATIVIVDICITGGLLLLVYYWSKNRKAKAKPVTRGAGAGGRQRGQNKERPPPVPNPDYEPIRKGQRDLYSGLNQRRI
T2 sequence (P04234 22-171, chain 2 of 3): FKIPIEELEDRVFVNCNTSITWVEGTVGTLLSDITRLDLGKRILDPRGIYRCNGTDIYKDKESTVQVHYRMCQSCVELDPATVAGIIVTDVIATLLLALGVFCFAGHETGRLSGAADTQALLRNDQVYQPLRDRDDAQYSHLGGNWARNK
T2 sequence (P09693 23-182, chain 3 of 3): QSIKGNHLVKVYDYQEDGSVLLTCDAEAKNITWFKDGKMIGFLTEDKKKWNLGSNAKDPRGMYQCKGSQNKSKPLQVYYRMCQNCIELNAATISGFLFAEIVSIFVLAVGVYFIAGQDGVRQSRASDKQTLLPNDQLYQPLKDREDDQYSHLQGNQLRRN

B1: ATG201-D105R-19B (bispecific antibody, human IgG1, kappa, L234A L235A)
heavy 1: not shown
heavy 2: QVQLQQSGAELVRPGSSVKISCKASGYAFSSYWMNWVKQRPGQGLEWIGQIWPGDGDTNYNGKFKGKATLTADESSSTAYMQLSSLASEDSAVYFCARRETTTVGRYYYAMDYWGQGTTVTVSSASTKGPSVFPLAPSSKSTSGGTAALGCLVKDYFPEPVTVSWNSGALTSGVHTFPAVLQSSGLYSLSSVVTVPSSSLGTQTYICNVNHKPSNTKVDKKVEPKSCGGGGSGGGGSEVQLVQSGAEVKKPGSSVKVSCKASGYTFSSYVIHWVRQAPGQCLEWMGYINPYNDVIKYNEKFKGRVTLTSDKSTSTAYMELSSLRSEDTAVYYCARDSYYSYRGFAYWGQGTLVTVSSGGGGSGGGGSGGGGSGGGGSEIVLTQSPDFQSVTPKEKVTITCSASSSVSYMHWYQQKPDQSPKRLIYDTSKLASGVPSRFSGSGSGTDFTLTINSLEAEDAATYYCQQWSSNPPTFGCGTKVEIKGGGGSGGGGSDKTHTCPPCPAPEAAGGPSVFLFPPKPKDTLMISRTPEVTCVVVDVSHEDPEVKFNWYVDGVEVHNAKTKPREEQYNSTYRVVSVLTVLHQDWLNGKEYKCKVSNKALPAPIEKTISKAKGQPREPQVCTLPPSREEMTKNQVSLSCAVKGFYPSDIAVEWESNGQPENNYKTTPPVLDSDGSFFLVSKLTVDKSRWQQGNVFSCSVMHEALHNHYTQKSLSLSPGK
light: not shown
notes: CD19xCD3 Fab-scFv-Fab: two C19B Fabs, anti-CD3 scFv 40E9-L2H3-D105R.H; L234A/L235A
As usually defined, the EC50 is the concentration at which the effect is half-maximal. The low end stands for higher potency in that assay, the high end for lower potency in that assay. The molecule B1 returned an EC50 in assay [1] of 2.9 nM. For the same molecule, the binding result in assay [2] was “binds”.

B2: 40E9-L2H3 (antibody, V domains shown)
VH: EVQLVQSGAEVKKPGSSVKVSCKASGYTFSSYVIHWVRQAPGQCLEWMGYINPYNDVIKYNEKFKGRVTLTSDKSTSTAYMELSSLRSEDTAVYYCARDSYYSYDGFAYWGQGTLVTVSS
VL: EIVLTQSPDFQSVTPKEKVTITCSASSSVSYMHWYQQKPDQSPKRLIYDTSKLASGVPSRFSGSGSGTDFTLTINSLEAEDAATYYCQQWSSNPPTFGCGTKVEIK
notes: also called ch40E9-derived humanized antibody 40E9-L2H3
As for B2, in the assay with CD3ε monomer, the binding result is reported as “no binding”.

B3: 40E9-L2H3-N55S.H (antibody, V domains shown)
VH: B2 VH with N55S
VL: B2 VL
notes: also called 40E9-N55S
Consider B3, for which, in the assay with CD3ε monomer, the binding result is given as “no binding”.

B4: ch40E9 (antibody, V domains shown)
VH: EVQLQLSGPELVKPGASVKMSCKASGYTFSSYVIHWVKQKPGQGLEWIGYINPYNDVIKYNEKFKGKATLTSDKSSSTAYMELSSLTSEDSAVYYCARDSYYSYDGFAYWGQGTLVTVSA
VL: QIVLTQSPAIMSASPGEKVTMTCSASSSVSYMHWYQQKSGTSPKRWIYDTSKLASGVPARFSGSGSGTSYSLTISSMEAEDAATYYCQQWSSNPPTFGGGTKVEIK
notes: also called 40-C12-C10-E9
For the molecule B4, the binding result with CD3ε monomer was “no binding”.

B5: ATG201-Y101F-19F (bispecific antibody, human IgG1, kappa, L234A L235A)
heavy 1: not shown
heavy 2: EVKLQESGPGLVAPSQSLSVTCTVSGVSLPDYGVSWIRQPPRKGLEWLGVIWGSETTYYNSALKSRLTIIKDNSKSQVFLKMNSLQTDDTAIYYCAKHYYYGGSYAMDYWGQGTSVTVSSASTKGPSVFPLAPSSKSTSGGTAALGCLVKDYFPEPVTVSWNSGALTSGVHTFPAVLQSSGLYSLSSVVTVPSSSLGTQTYICNVNHKPSNTKVDKKVEPKSCGGGGSGGGGSEVQLVQSGAEVKKPGSSVKVSCKASGYTFSSYVIHWVRQAPGQCLEWMGYINPYNDVIKYNEKFKGRVTLTSDKSTSTAYMELSSLRSEDTAVYYCARDSFYSYDGFAYWGQGTLVTVSSGGGGSGGGGSGGGGSGGGGSEIVLTQSPDFQSVTPKEKVTITCSASSSVSYMHWYQQKPDQSPKRLIYDTSKLASGVPSRFSGSGSGTDFTLTINSLEAEDAATYYCQQWSSNPPTFGCGTKVEIKGGGGSGGGGSDKTHTCPPCPAPEAAGGPSVFLFPPKPKDTLMISRTPEVTCVVVDVSHEDPEVKFNWYVDGVEVHNAKTKPREEQYNSTYRVVSVLTVLHQDWLNGKEYKCKVSNKALPAPIEKTISKAKGQPREPQVCTLPPSREEMTKNQVSLSCAVKGFYPSDIAVEWESNGQPENNYKTTPPVLDSDGSFFLVSKLTVDKSRWQQGNVFSCSVMHEALHNHYTQKSLSLSPGK
light: DIQMTQTTSSLSASLGDRVTISCRASQDISKYLNWYQQKPDGTVKLLIYHTSRLHSGVPSRFSGSGSGTDYSLTISNLEQEDIATYFCQQGNTLPYTFGGGTKLEITRTVAAPSVFIFPPSDEQLKSGTASVVCLLNNFYPREAKVQWKVDNALQSGNSQESVTEQDSKDSTYSLSSTLTLSKADYEKHKVYACEVTHQGLSSPVTKSFNRGEC
notes: CD19xCD3 Fab-scFv-Fab: two C19F Fabs, anti-CD3 scFv 40E9-L2H3-Y101F.H; L234A/L235A
In the case of B5, the EC50 in assay [1] came to 4.36 nM; in assay [3], 0.468 nM; in assay [4], 1.13 nM; in assay [5], 0.609 nM. Further, the binding result in assay [2] is on record as “binds”.

B6: ATG201-N55S-19F (bispecific antibody, human IgG1, kappa, L234A L235A)
heavy 1: not shown
heavy 2: B5 heavy 2 with N288S, F334Y
light: B5 light
notes: CD19xCD3 Fab-scFv-Fab: two C19F Fabs, anti-CD3 scFv 40E9-L2H3-N55S.H; L234A/L235A
As for B6, the EC50 in assay [1] came out at 4.91 nM; in assay [3], 1.08 nM; in assay [4], 1.5 nM; in assay [5], 0.847 nM. The binding result in assay [2] is given as “binds”.

The values above are taken from patent publication US20260193348A1 (ANTENGENE BIOLOGICS, published 2026).
